The target of the experiment is nMagHigh1-C714 (fused polypeptide of nMagHigh1 and a C-terminal side fragment of Cas9). The experiment can be described thus: cell-based or functional assay.

The source of these data is patent publication US20170298330A1.

As to “N713-pMag (fused polypeptide of an N-terminal side fragment of Cas9 and pMag)”, the frequency of HDR (integration of a HindIII site) at human EMX1 locus, RFLP analysis, blue light turned out to be 7.2%; the indel frequency at EMX1 locus after 0, 1, 3 and 6 hours of blue light, T7E1 assay is below 1%; the light-dependent Cas9 activity, luciferase plasmid HDR assay in HEK293T cells turned out to be 16.4 times.
